{"source": "patent EP4578875A1", "binders": {"B1": {"name": "anti-CD3 VH-Y61C mutant conjugated with PEG5K, after activation (antibody, V domains shown)", "VH": "EVQLVESGGGLVQPGGSLRLSCAASGFTFSTYAMNWVRQAPGKGLEWVGRIRSKYNNYATCYADSVKDRFTISRDDSKNSLYLQMNSLKTEDTAVYYCARHGNFGNSYVSWFAYWGQGTLVTVSS", "VL": "QTVVTQEPSLTVSPGGTVTLTCRSSTGAVTTSNYANWVQQKPGQAPRGLIGGTNKRAPGVPARFSGSLLGDKAALTLLGAQPEDEAEYFCALWYSNLWVFGGGTKLTVL", "modifications": "Cys 61 with what is left of the linker after activation (PEG5K blocker released); structure not given"}, "B2": {"name": "anti-CD3 VH-Y61C mutant conjugated with PEG20K, after activation (antibody, V domains shown)", "VH": "B1 VH", "VL": "B1 VL", "modifications": "Cys 61 with what is left of the linker after activation (PEG20K blocker released); structure not given"}, "B3": {"name": "anti-CD3 VH-Y61C mutant conjugated with PEG10K, after activation (antibody, V domains shown)", "VH": "B1 VH", "VL": "B1 VL", "modifications": "Cys 61 with what is left of the linker after activation (PEG10K blocker released); structure not given"}, "B4": {"name": "anti-CD3 VH-Y61C mutant conjugated with PEG40K, after activation (antibody, V domains shown)", "VH": "B1 VH", "VL": "B1 VL", "modifications": "Cys 61 with what is left of the linker after activation (PEG40K blocker released); structure not given"}, "B5": {"name": "anti-CD3 antibody mutant VH-Y61C conjugated with Molecule I (+20K) (antibody, V domains shown)", "VH": "B1 VH", "VL": "B1 VL", "modifications": "Molecule I (+20K; cleavable linker with PEG20K, shown only as a drawing) conjugated on Cys 61"}, "B6": {"name": "anti-CD3 VH-Y61C mutant conjugated with cleavable linker and R1 = PEG10K (antibody, V domains shown)", "VH": "B1 VH", "VL": "B1 VL", "modifications": "cleavable linker peptide P with blocker PEG10K on Cys 61"}, "B7": {"name": "anti-CD3 VH-Y61C mutant conjugated with cleavable linker and R1 = PEG5K (antibody, V domains shown)", "VH": "B1 VH", "VL": "B1 VL", "modifications": "cleavable linker peptide P with blocker PEG5K on Cys 61"}, "B8": {"name": "anti-CD3 VH-Y61C mutant conjugated with cleavable linker and R1 = PEG40K (antibody, V domains shown)", "VH": "B1 VH", "VL": "B1 VL", "modifications": "cleavable linker peptide P with blocker PEG40K on Cys 61"}, "B9": {"name": "anti-CD3 antibody mutant VL-Y94C conjugated with Molecule I (+20K) (antibody, V domains shown)", "VH": "B1 VH with C61Y", "VL": "B1 VL with Y94C", "modifications": "Molecule I (+20K, shown only as a drawing) conjugated on Cys 94"}, "B10": {"name": "anti-CD3 antibody mutant VL-W93C conjugated with Molecule I (+20K) (antibody, V domains shown)", "VH": "B1 VH with C61Y", "VL": "B1 VL with W93C", "modifications": "Molecule I (+20K, shown only as a drawing) conjugated on Cys 93"}, "B11": {"name": "anti-CD3 antibody mutant VL-N96C conjugated with Molecule I (+20K) (antibody, V domains shown)", "VH": "B1 VH with C61Y", "VL": "B1 VL with N96C", "modifications": "Molecule I (+20K, shown only as a drawing) conjugated on Cys 96"}}, "note": "Positions count from the first letter of the chain named. Names may count otherwise."}
{"target": "CD3 (antibody antigen coated on the ELISA plate in Examples 1 to 3) (Homo sapiens (Human)) (UniProt P07766)", "sequence (P07766 23-126 limits assumed)": "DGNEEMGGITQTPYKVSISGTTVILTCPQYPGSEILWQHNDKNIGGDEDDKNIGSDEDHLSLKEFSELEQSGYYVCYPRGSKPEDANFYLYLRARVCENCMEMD", "assay": "binding activity after activation of the conjugate; method not described", "units": {"Recovery of binding force after activation (%)": "%"}}
{"binder": "B1", "Recovery of binding force after activation (%)": 100}
{"binder": "B2", "Recovery of binding force after activation (%)": 100}
{"binder": "B3", "Recovery of binding force after activation (%)": 100}
{"binder": "B4", "Recovery of binding force after activation (%)": 100}
{"target": "CD3 (antibody antigen coated on the ELISA plate in Examples 1 to 3) (Homo sapiens (Human)) (UniProt P07766)", "assay": "binding activity after conjugation with different R1; method not described", "units": {"Blocking fold after conjugation": "fold"}}
{"binder": "B5", "Blocking fold after conjugation": 400}
{"binder": "B6", "Blocking fold after conjugation": 20}
{"binder": "B7", "Blocking fold after conjugation": 10}
{"binder": "B8", "Blocking fold after conjugation": 500}
{"target": "CD3 (antibody antigen coated on the ELISA plate in Examples 1 to 3) (Homo sapiens (Human)) (UniProt P07766)", "assay": "binding activity of the conjugated mutant compared with the wild-type antibody (ELISA as in Example 1)", "units": {"Blocking fold after conjugation (+20K)": "fold"}}
{"binder": "B5", "Blocking fold after conjugation (+20K)": 400}
{"binder": "B9", "Blocking fold after conjugation (+20K)": 30}
{"binder": "B10", "Blocking fold after conjugation (+20K)": 5}
{"binder": "B11", "Blocking fold after conjugation (+20K)": 2}
